From US20210275657A1, “NEOANTIGENS AND USES THEREOF” (BioNTech US Inc., priority 2018, published 2021)
One block for each binder: values may come before it.

Columns and labels:
Details in all cases: remark: other sources report otherwise
HLA-A02:01 (human) [1] = experiment: peptide-HLA affinity, Example 9
HLA-A02:01 (human) [2] = experiment: peptide-HLA stability, Example 9
HLA-A02:01 (human) [3] = experiment: peptide-HLA affinity, Example 41
HLA-B07:02 (human) [4] = experiment: peptide-HLA affinity, Example 41
HLA-A02:01 (human) [5] = experiment: peptide-HLA stability, Example 41
HLA-B07:02 (human) [6] = experiment: peptide-HLA stability, Example 41
HLA-B08:01 (human) [7] = experiment: peptide-HLA stability, Example 41
HLA-A02:01 (human) [8] = experiment: peptide-HLA affinity, Example 36
HLA-A02:01 (human) [9] = experiment: peptide-HLA stability, Example 36
HLA-B07:02 (human) [10] = experiment: peptide-HLA affinity, Example 36
HLA-B08:01 (human) [11] = experiment: peptide-HLA affinity, Example 36
HLA-B07:02 (human) [12] = experiment: peptide-HLA stability, Example 36
HLA-B08:01 (human) [13] = experiment: peptide-HLA stability, Example 36
HLA-A01:01 (human) [14] = experiment: peptide-HLA affinity, Example 41
HLA-A01:01 (human) [15] = experiment: peptide-HLA stability, Example 41
HLA-A24:02 (human) [16] = experiment: peptide-HLA affinity, Example 9
HLA-A24:02 (human) [17] = experiment: peptide-HLA stability, Example 9
HLA-B08:01 (human) [18] = experiment: peptide-HLA stability, Example 9
HLA-A02:01 (human) [19] = experiment: pMHC-I dissociation, 125I-b2m, 37C; average of 2
HLA-B08:01 (human) [20] = experiment: pMHC-I dissociation, 125I-b2m, 37C; average of 2
HLA-A02:01 (human) [21] = experiment: pMHC-I dissociation, 125I-b2m, 37C; experiment 1
HLA-B08:01 (human) [22] = experiment: pMHC-I dissociation, 125I-b2m, 37C; experiment 1
HLA-A02:01 (human) [23] = experiment: pMHC-I dissociation, 125I-b2m, 37C; experiment 2
HLA-B08:01 (human) [24] = experiment: pMHC-I dissociation, 125I-b2m, 37C; experiment 2

Binder: ALQPLQPHA
Observed MHC affinity (HLA-A02:01 (human) [1]): 604 nM
Observed MHC stability (HLA-A02:01 (human) [2]): 1.5 h

Binder: MQLMPFGCL
Affinity (HLA-A02:01 (human) [3]): 116 nM
Affinity (HLA-B07:02 (human) [4]): 1590 nM
Stability (1/2 hr) (HLA-A02:01 (human) [5]): 0.368 h
Stability (1/2 hr) (HLA-B07:02 (human) [6]): 0 h
Stability (1/2 hr) (HLA-B08:01 (human) [7]): 0 h

Binder: YMANGSLLN
Affinity (HLA-A02:01 (human) [8]): 4000 nM
Stability (1/2 hr) (HLA-A02:01 (human) [9]): 0 h

Binder: IMQLMPFGC
Affinity (HLA-A02:01 (human) [3]): 1210 nM
Stability (1/2 hr) (HLA-A02:01 (human) [5]): 0.37 h

Binder: SLLNYLREM
Affinity (HLA-A02:01 (human) [8]): 67.7 nM
Affinity (HLA-B07:02 (human) [10]): 866 nM
Affinity (HLA-B08:01 (human) [11]): 960 nM
Stability (1/2 hr) (HLA-A02:01 (human) [9]): 3.04 h
Stability (1/2 hr) (HLA-B07:02 (human) [12]): 0 h
Stability (1/2 hr) (HLA-B08:01 (human) [13]): 0 h

Binder: CLTSTVQLIM
Affinity (HLA-A01:01 (human) [14]): 8.28 µM
Affinity (HLA-A02:01 (human) [3]): 537 nM
Stability (1/2 hr) (HLA-A01:01 (human) [15]): 0 h
Stability (1/2 hr) (HLA-A02:01 (human) [5]): 0 h

Binder: STVQLIMQL
Affinity (HLA-A02:01 (human) [3]): 7260 nM
Stability (1/2 hr) (HLA-A02:01 (human) [5]): 0 h

Binder: MANGSLLNYL
Affinity (HLA-A02:01 (human) [8]): 1010 nM
Stability (1/2 hr) (HLA-A02:01 (human) [9]): 0 h

Results, then the binder that gave them:

Affinity (HLA-A02:01 (human) [3]): 16.3 nM
Stability (1/2 hr) (HLA-A02:01 (human) [5]): 0.381 h
Binder: MQLMPFGCLL

Affinity (HLA-A02:01 (human) [3]): 653 nM
Stability (1/2 hr) (HLA-A02:01 (human) [5]): 0.516 h
Stability (1/2 hr) (HLA-B08:01 (human) [7]): 0 h
Binder: IMQLMPFGCL

Observed MHC affinity (HLA-A24:02 (human) [16]): 7 µM
Observed MHC stability (HLA-A02:01 (human) [2]): 0.6 h
Observed MHC stability (HLA-A24:02 (human) [17]): 1.2 h
Observed MHC stability (HLA-B08:01 (human) [18]): 0.4 h
half-life (HLA-A02:01 (human) [19]): 36 min
half-life (HLA-B08:01 (human) [20]): 24 min
half-life (HLA-A02:01 (human) [21]): 36 min
half-life (HLA-B08:01 (human) [22]): 24 min
half-life (HLA-A02:01 (human) [23]): 36 min
half-life (HLA-B08:01 (human) [24]): 30 min
Binder: YMFLKAESKI

Affinity (HLA-A02:01 (human) [3]): 3340 nM
Stability (1/2 hr) (HLA-A02:01 (human) [5]): 0 h
Binder: LIMQLMPFG

Affinity (HLA-A01:01 (human) [14]): 2.89 µM
Stability (1/2 hr) (HLA-A01:01 (human) [15]): 0.104 h
Binder: LTSTVQLIM
